Test results as given in patent US12691168B2, “Vaccine for preventing and treating Merkel cell carcinoma” (priority 2020, dated 2026).

B1: rVP1: recombinant VP1 from inclusion bodies, disassembled with DTT/EGTA and reassembled under GSSG-GSH condition (protein)
chain: MAPKRKASSTCKTPKRQCIPKPGCCPNVASVPKLLVKGGVEVLSVVTGEDSITQIELYLNPRMGVNSPDLPTTSNWYTYTYDLQPKGSSPDQPIKENLPAYSVARVSLPMLNEDITCDTLQMWEAISVKTEVVGISSLINVHYWDMKRVHDYGAGIPVSGVNYHMFAIGGEPLDLQGLVLDYQTEYPKTTNGGPITIETVLGRKMTPKNQGLDPQAKAKLDKDGNYPIEVWCPDPSKNENSRYYGSIQTGSQTPTVLQFSNTLTTVLLDENGVGPLCKGDGLFISCADIVGFLFKTSGKMALHGLPRYFNVTLRKRWVKNPYPVVNLINSLFSNLMPKVSGQPMEGKDNQVEEVRIYEGSEQLPGDPDIVRFLDKFGQEKTVYPKPSVAPAAVTFQSNQQDKGKAPLKGPQKASQKESQTQELHHHHHH
B2: sVP1: soluble VP1 expressed under low-temperature induction (protein)
chain: B1 chain

Tests used:
[1] = test system: CMS5 cells; experiment: Killing effect of puromycin on CMS5 cells (trypan blue staining, microscope); format: cell-based; details: puromycin 5 μg/mL, 24 h of culture
Description: In order to determine the killing dose of puromycin to CMS5, CMS5 cells were cultured in RPMI1640 (10% FBS, 1% […]) complete media with different concentrations of puromycin. 24 h later, cells were stained with trypan blue and observed under a microscope for mortality to determine the drug concentration for 100% lethality of CMS5 cells as the drug pressure for CMS5-VP1 cell line screening. […] After 24 h of culture, the CMS5 cells digested with trypsin were stained with trypan blue and the lethality of the cells was calculated microscopically to determine the final puromycin drug concentration. […]

[2] = Particle size by nano particle sizer; format: physicochemical
Description: 5) The VP1 was detected for pentamer formation by Nu-PAGE. The MCV-VP1 particle size was measured using a nano particle sizer.
3) Reassembled (also known as self-assembled) recombinant VP1 was named (rVP1), and rVP1 was filtered through a […] needle filter for sterilization, detected for the pentamer structure by Nu-PAGE, and measured for the particle size by a nano particle sizer.

[3] = test system: anti-VP1 antibody in serum; experiment: VP1-specific antibody titer in serum of immunized mice by ELISA; format: in vivo, BALB/c mice; details: Example 14; antigen adsorbed to Al(OH)3, i.m. days 0 and 14, blood day 28; plate coated with sVP1
Description: Enzyme-linked immunosorbent assay: on day 21, blood samples were collected from the mice, and the serum was determined for specific antibody titer by ELISA. When the antibody concentration in the mouse serum needs to be semi-quantitatively determined, a standard curve is added on the basis of the conventional ELISA, and the concentration of the antibody in the mouse serum is determined according to the concentration of the standard curve.
Blood was taken from the fundus of BALB/c mice who have completed the immunization program on day 28 after the initial immunization and left to stand at 4° C. overnight. The blood was centrifuged at 6000 rpm for 10 min to obtain serum. The level of anti-VP1 antibody in serum was determined by ELISA. The specific procedures were as follows: […]
The optical absorbance values were read at OD450/OD620 nm, and a value of 2.1 times the OD value of the negative control group was taken as a cutoff value. […]
In order to obtain a large amount of VP1, VP1 expressed under high-temperature induction in a fermentation tank mainly formed inclusion bodies. […] The antigen-specific antibody titer was determined by enzyme-linked immunosorbent assay (ELISA), and the specific procedures were as follows: […]
Reading: optical absorbance values were read at OD450/OD620. […]

[4] = test system: DTH (delayed type hypersensitivity); experiment: Delayed type hypersensitivity (DTH), foot pad / paw swelling after antigen injection; format: in vivo, mice; details: Example 13; two immunizations; 24 h after injection of rVP1; therapeutic vaccine groups compared with Vac group
Description: Delayed Type Hypersensitivity (DTH): the mice were immunized with the vaccine, and 7 days after the final immunization, 10 μL of antigen protein (10 μg) was injected into the hindfoot pad on the immunized side (right side) of the mice, and 10 μL of phosphate buffer was injected into the hindfoot pad on the side opposite to the immunized side (left side). The thickness of both hindfoot pads of the mice was measured 24 h and 48 h after DTH with a vernier caliper, and the measurement was performed three times at the same site to take the average. DTH value (mm)=right foot pad thickness−left foot pad thickness.
On day 7 after the immunization program, mice were injected with 10 μL of PBS or 10 μg of rVP1 (10 μL) at the left and right hind limb paws.
The paw swelling thickness was calculated for each experimental group according to the formula, and the differences between all vaccine groups were analyzed with GraphPad Prism statistical software.

| Molecule | dead CMS5 cells, trypan blue staining [1] | state of the cells observed under a microscope [1] | particle size [2] | antigen-specific antibody titer relative to sVP1 [3] | DTH reaction (paw swelling thickness) [4] |
| --- | --- | --- | --- | --- | --- |
| COc1ccc(C[C@H](N)C(=O)N[C@H]2[C@@H](O)[C@H](n3cnc4c(N(C)C)ncnc43)O[C@@H]2CO)cc1 [puromycin] | 100% | died in large numbers | – | – | – |
| B1 | – | – | 115.3 nm | twice those of sVP1 | not significant |
| B2 | – | – | much higher than that of rVP1 | – | – |
